Publication PMC9894263

Target: GLUT4 template complex Munc18-3:Syntaxin-4:VAMP2 (rat | not stated) (UniProt Q08850)
Assay: optical tweezers

B1: full-length cysteine-free SNAP-23 ([change], [change], [change], [change], [change]) (natural protein)
chain: MDDLSPEEIQLRAHQVTDESLESTRRILGLAIESQDAGIKTITMLDEQGEQLNRIEEGMDQINKDMREAEKTLTELNKSSGLSVSPSNRTKNFESGKNYKATWGDGGDSSPSNVVSKQPSRITNGQPQQTTGAASGGYIKRITNDAREDEMEENLTQVGSILGNLKNMALDMGNEIDAQNQQIQKITEKADTNKNRIDIANTRAKKLIDS
probability of SNAP-23 binding: 0.42
